# Experimental data as given in PMC8567228 (EMBO Reports, 2021).
# T1: pThr72-Rab8a switch 2 phosphopeptide (residues 65-79) (human)
# T1 sequence (peptide, phosphothreonine (T*) at Thr72): AGQERFRTITTAYYR
# T2: pThr73-Rab10 switch 2 phosphopeptide (human)
# T2 sequence (peptide, phosphothreonine (T*) at Thr73): AGQERFHTITTSYYR
# T3: Rab8a phosphorylated at Thr72 (pRab8a) (human), P61006
# T3 chain: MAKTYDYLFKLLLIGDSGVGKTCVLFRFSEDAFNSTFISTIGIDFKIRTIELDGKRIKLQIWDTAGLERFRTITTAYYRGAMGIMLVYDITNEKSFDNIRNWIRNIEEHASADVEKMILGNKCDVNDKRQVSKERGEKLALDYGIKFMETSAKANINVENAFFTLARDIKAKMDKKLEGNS
# Assays:
# [1] = molecular target: Rab8a phosphorylated at Thr72 (pRab8a) (human) (UniProt P61006)
# [2] = molecular target: T1, pThr72-Rab8a switch 2 phosphopeptide (residues 65-79) (human)
# [3] = molecular target: T2, pThr73-Rab10 switch 2 phosphopeptide (human)
# [4] = molecular target: the molecule itself; assay: crystal structure; vapour diffusion crystals, space group P212121, two molecules of PPM1H in the asymmetric unit; with Mg2+ (7kpr, 7l4j, 7l4i) or Mn2+ (7n0z)
# [5] = molecular target: the molecule itself; assay: SEC-MALS; His6-tagged proteins injected at 2 mg/ml (100 μl) into a Superdex 200 column; DAWN Heleos and Optilab TrEX detectors
# [6] = molecular target: T3, Rab8a phosphorylated at Thr72 (pRab8a) …; assay: cross-linking; DSBU 9.375 mM, 10 min at RT; 35 µM Rab8a and 28 µM PPM1H pre-incubated 1 h at 30°C in 40 mM HEPES pH 7.5, 150 mM NaCl, 2 mM MgCl2; SDS-PAGE, bands digested and read by LC MS/MS
binder,measurement,setting,value
"His6-SUMO-PPM1H[K88A], full length (enzyme) MLTRVKSAVANFMGGIMAGSSGSEHGGGSCGGSDLPLRFPYGRPEFLGLSQDEVECSADHIARPILILKETRRLPWATGYAEVINAGASTHNEDQASCEVLTVKKKAGAVTSTPNRNSSKRRSSLPNGEGLQLKENSESEGVSCHYWSLFDGHAGSGAAVVASRLLQHHITEQLQDIVDILKNSAVLPPTCLGEEPENTPANSRTLTRAASLRGGVGAPGSPSTPPTRFFTEKKIPHECLVIGALESAFKEMDLQIERERSSYNISGGCTALIVICLLGKLYVANAGDSRAIIIRNGEIIPMSSEFTPETERQRLQYLAFMQPHLLGNEFTHLEFPRRVQRKELGKKMLYRDFNMTGWAYKTIEDEDLKFPLIYGEGKKARVMATIGVTRGLGDHDLKVHDSNIYIKPFLSSAPEVRIYDLSKYDHGSDDVLILATDGLWDVLSNEEVAEAITQFLPNCDPDDPHRYTLAAQDLVMRARGVLKDRGWRISNDRLGSGDDISVYVIPLIHGNKLS","initial rate of phosphate release (malachite green time course), 16 μM pThr72-Rab8a protein (GTPγS), against wild-type PPM1H (fold reduction)",[1],> 20
same,"initial rate of phosphate release (malachite green time course), 32 μM pThr72-Rab8a peptide, against wild-type PPM1H (fold reduction)",[2],> 20
same,"initial rate of phosphate release (malachite green time course), 32 μM pThr73-Rab10 peptide, against wild-type PPM1H (fold reduction)",[3],> 20
"His6-SUMO-PPM1H[R338A], full length (enzyme) MLTRVKSAVANFMGGIMAGSSGSEHGGGSCGGSDLPLRFPYGRPEFLGLSQDEVECSADHIARPILILKETRRLPWATGYAEVINAGKSTHNEDQASCEVLTVKKKAGAVTSTPNRNSSKRRSSLPNGEGLQLKENSESEGVSCHYWSLFDGHAGSGAAVVASRLLQHHITEQLQDIVDILKNSAVLPPTCLGEEPENTPANSRTLTRAASLRGGVGAPGSPSTPPTRFFTEKKIPHECLVIGALESAFKEMDLQIERERSSYNISGGCTALIVICLLGKLYVANAGDSRAIIIRNGEIIPMSSEFTPETERQRLQYLAFMQPHLLGNEFTHLEFPRAVQRKELGKKMLYRDFNMTGWAYKTIEDEDLKFPLIYGEGKKARVMATIGVTRGLGDHDLKVHDSNIYIKPFLSSAPEVRIYDLSKYDHGSDDVLILATDGLWDVLSNEEVAEAITQFLPNCDPDDPHRYTLAAQDLVMRARGVLKDRGWRISNDRLGSGDDISVYVIPLIHGNKLS","initial activity of phosphate release (malachite green time course), 16 μM pThr72-Rab8a protein (GTPγS), against wild-type PPM1H (fold reduction)",[1],2
"PPM1H^DA-LD (residues 33-514, D288A, loop 188-226 replaced by GSGS, C56A), crystallised form (enzyme, human, PPM1H phosphatase, human, residues 33-187 with C56A; short linker that replaces the loop 188-226; PPM1H phosphatase, human, residues 227-514 with D288A; also called pET28a(+)-PPM1H^D288A LoopDEL; source: E. coli, purified (nickel agarose, TEV cleavage, second Ni column, Superdex 200); not shown: His6, N-terminal, cleaved) SDLPLRFPYGRPEFLGLSQDEVEASADHIARPILILKETRRLPWATGYAEVINAGKSTHNEDQASCEVLTVKKKAGAVTSTPNRNSSKRRSSLPNGEGLQLKENSESEGVSCHYWSLFDGHAGSGAAVVASRLLQHHITEQLQDIVDILKNSAVLGSGSTRFFTEKKIPHECLVIGALESAFKEMDLQIERERSSYNISGGCTALIVICLLGKLYVANAGASRAIIIRNGEIIPMSSEFTPETERQRLQYLAFMQPHLLGNEFTHLEFPRRVQRKELGKKMLYRDFNMTGWAYKTIEDEDLKFPLIYGEGKKARVMATIGVTRGLGDHDLKVHDSNIYIKPFLSSAPEVRIYDLSKYDHGSDDVLILATDGLWDVLSNEEVAEAITQFLPNCDPDDPHRYTLAAQDLVMRARGVLKDRGWRISNDRLGSGDDISVYVIPLIHGNKLS",binding result,[4],binds
"His6-tagged PPM1H^WT-LD (residues 33-514, loop 188-226 replaced by GSGS, C56A) (enzyme, human, PPM1H phosphatase, human, residues 33-187 with C56A; short linker that replaces the loop 188-226; PPM1H phosphatase, human, residues 227-514; Same construct as m2 but with the His6 tag kept for SEC-MALS (calculated about 52.1 kDa); source: E. coli, purified (Ni-agarose, Superdex 200); not shown: His6, N-terminal, kept) SDLPLRFPYGRPEFLGLSQDEVEASADHIARPILILKETRRLPWATGYAEVINAGKSTHNEDQASCEVLTVKKKAGAVTSTPNRNSSKRRSSLPNGEGLQLKENSESEGVSCHYWSLFDGHAGSGAAVVASRLLQHHITEQLQDIVDILKNSAVLGSGSTRFFTEKKIPHECLVIGALESAFKEMDLQIERERSSYNISGGCTALIVICLLGKLYVANAGDSRAIIIRNGEIIPMSSEFTPETERQRLQYLAFMQPHLLGNEFTHLEFPRRVQRKELGKKMLYRDFNMTGWAYKTIEDEDLKFPLIYGEGKKARVMATIGVTRGLGDHDLKVHDSNIYIKPFLSSAPEVRIYDLSKYDHGSDDVLILATDGLWDVLSNEEVAEAITQFLPNCDPDDPHRYTLAAQDLVMRARGVLKDRGWRISNDRLGSGDDISVYVIPLIHGNKLS",stoichiometry N,[5],2
"Recombinant PPM1H[D288A] used for DSBU cross-linking, Q9ULR3 1-514 (enzyme, modifications not checked) SDLPLRFPYGRPEFLGLSQDEVECSADHIARPILILKETRRLPWATGYAEVINAGKSTHNEDQASCEVLTVKKKAGAVTSTPNRNSSKRRSSLPNGEGLQLKENSESEGVSCHYWSLFDGHAGSGAAVVASRLLQHHITEQLQDIVDILKNSAVLPPTCLGEEPENTPANSRTLTRAASLRGGVGAPGSPSTPPTRFFTEKKIPHECLVIGALESAFKEMDLQIERERSSYNISGGCTALIVICLLGKLYVANAGASRAIIIRNGEIIPMSSEFTPETERQRLQYLAFMQPHLLGNEFTHLEFPRRVQRKELGKKMLYRDFNMTGWAYKTIEDEDLKFPLIYGEGKKARVMATIGVTRGLGDHDLKVHDSNIYIKPFLSSAPEVRIYDLSKYDHGSDDVLILATDGLWDVLSNEEVAEAITQFLPNCDPDDPHRYTLAAQDLVMRARGVLKDRGWRISNDRLGSGDDISVYVIPLIHGNKLS",stoichiometry N (PPM1H per pRab8a (2:2)),[6],1
"PPM1H^DA (residues 33-514, D288A), crystallised form (enzyme, human, UniProt Q9ULR3 33-514, looked up, PPM1H phosphatase, human, residues 33-514 with D288A (substrate-trapping mutant); Two molecules in the asymmetric unit; two Mg2+ ions at the active site; also called pNIC28-Bsa4-PPM1H^33-514 D288A; source: E. coli, purified (nickel agarose, TEV cleavage, second Ni column, Superdex 200)) SDLPLRFPYGRPEFLGLSQDEVECSADHIARPILILKETRRLPWATGYAEVINAGKSTHNEDQASCEVLTVKKKAGAVTSTPNRNSSKRRSSLPNGEGLQLKENSESEGVSCHYWSLFDGHAGSGAAVVASRLLQHHITEQLQDIVDILKNSAVLPPTCLGEEPENTPANSRTLTRAASLRGGVGAPGSPSTPPTRFFTEKKIPHECLVIGALESAFKEMDLQIERERSSYNISGGCTALIVICLLGKLYVANAGASRAIIIRNGEIIPMSSEFTPETERQRLQYLAFMQPHLLGNEFTHLEFPRRVQRKELGKKMLYRDFNMTGWAYKTIEDEDLKFPLIYGEGKKARVMATIGVTRGLGDHDLKVHDSNIYIKPFLSSAPEVRIYDLSKYDHGSDDVLILATDGLWDVLSNEEVAEAITQFLPNCDPDDPHRYTLAAQDLVMRARGVLKDRGWRISNDRLGSGDDISVYVIPLIHGNKLS",binding result,[4],binds
